Experiments:
EBV gp350 [1] = molecular target: T1, EBV gp350 (Epstein-Barr virus, UniProt P03200); assay: other (NMR titration, upper limit)
T1 chain: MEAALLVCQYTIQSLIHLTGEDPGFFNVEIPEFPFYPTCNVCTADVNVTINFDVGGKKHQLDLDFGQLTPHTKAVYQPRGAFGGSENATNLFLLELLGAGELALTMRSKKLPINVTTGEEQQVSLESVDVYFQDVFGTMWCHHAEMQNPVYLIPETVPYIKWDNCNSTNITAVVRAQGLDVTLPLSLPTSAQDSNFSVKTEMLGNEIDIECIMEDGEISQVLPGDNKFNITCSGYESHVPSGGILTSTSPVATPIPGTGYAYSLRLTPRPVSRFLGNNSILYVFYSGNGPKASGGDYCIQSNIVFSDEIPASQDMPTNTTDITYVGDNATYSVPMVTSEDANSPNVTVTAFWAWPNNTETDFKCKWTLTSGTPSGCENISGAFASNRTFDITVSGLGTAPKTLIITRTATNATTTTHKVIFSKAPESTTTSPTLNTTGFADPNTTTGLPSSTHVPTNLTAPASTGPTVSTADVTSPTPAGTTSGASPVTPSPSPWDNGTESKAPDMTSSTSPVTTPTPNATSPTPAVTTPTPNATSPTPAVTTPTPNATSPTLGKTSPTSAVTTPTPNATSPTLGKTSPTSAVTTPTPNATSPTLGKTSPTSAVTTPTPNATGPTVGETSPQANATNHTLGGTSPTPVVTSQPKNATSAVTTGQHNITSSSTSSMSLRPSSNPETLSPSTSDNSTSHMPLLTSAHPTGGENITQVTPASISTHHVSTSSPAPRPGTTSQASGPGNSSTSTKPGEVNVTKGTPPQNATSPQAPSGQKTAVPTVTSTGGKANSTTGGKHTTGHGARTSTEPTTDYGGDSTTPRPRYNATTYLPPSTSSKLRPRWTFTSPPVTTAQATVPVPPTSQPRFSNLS

EBV gp350 [2] = molecular target: T1, EBV gp350; assay: ITC
C3d [3] = molecular target: T2, C3d (human, UniProt P01024); assay: other (NMR titration, weak site)
T2 sequence (P01024 1002-1303): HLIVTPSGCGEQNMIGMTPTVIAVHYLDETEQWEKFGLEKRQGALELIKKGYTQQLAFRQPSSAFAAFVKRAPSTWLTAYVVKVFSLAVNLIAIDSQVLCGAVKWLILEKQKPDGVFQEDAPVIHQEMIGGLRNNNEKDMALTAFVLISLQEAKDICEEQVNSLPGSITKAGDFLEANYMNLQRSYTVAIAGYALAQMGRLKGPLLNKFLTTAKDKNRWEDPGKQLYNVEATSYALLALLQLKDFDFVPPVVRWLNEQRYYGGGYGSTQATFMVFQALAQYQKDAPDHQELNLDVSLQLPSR

C3d [4] = molecular target: T2, C3d; assay: ITC, two-site fit, weak site
C3d [5] = molecular target: T2, C3d; assay: other (NMR titration, tight site, upper limit)
C3d [6] = molecular target: T2, C3d; assay: ITC, two-site fit, tight site

B1: human CR2 SCR1-2 (protein)
chain: ISCGSPPPILNGRISYYSTPIAVGTVIRYSCSGTFRLIGEKSLLCITKDKVDGTWDKPAPKCEYFNKYSSCPEPIVPGGYKIRGSTPYRHGDSVTFACKTNFSMNGNKSVWCQANNMWGPTRLPTCVS
With B1 as the binder, how does the Kd (EBV gp350 [1]) read?
Its Kd is under 60 µM.

And the Kd (EBV gp350 [2])?
Its Kd is 0.014 µM.

What about the Kd (C3d [3]) of the same binder?
The Kd was 130 µM.

And the Kd (C3d [4])?
The Kd was 160 µM.

And the Kd (C3d [5])?
The Kd was under 45 µM.

And the Kd (C3d [6])?
The Kd was 0.13 µM.
